From US20210079067A1 (US Dept. of Health and Human Services, published 2021)

B1: mAb100 (antibody, V domains shown)
VH: QVQLQESGPGLVKPSDTLSLTCTVSGGSLSSFYWSWIRQPPGKGLEWIGYIYYSGSPNYSPSLESRVTMSVDTTRNQISLKLDSVTAADTAVYYCVRASRSYYWGSYRPTAFDSWGQGTLVTVSS
VL: SYELTQPLSVSVSPGQTAIFTCSGDNLGDKYVCWFQQRPGQSPMLLIYQDNKRPSGIPERFSGSNSGNTATLTISGTQSTDEADYYCQTWDSTVVFGGGTKLTVL
B2: S1-4-A09 antibody (IgG1 expressed version) (antibody, V domains shown)
VH: QVQLQESGPGLVKPSETLSLTCVVSGGILSSFYWNWIRQPPGKGLEWIGNIYYSGSPNYNASFQSRVAISVDTSKNQISLNLKSVTAADTAMYYCVRASRAYLWGSYRPTALDLWGQGSLVTVSS
VL: SYELTQPPSVSVSPGQTATITCSGDKLGDKYTSWFQQRPGQSPLLVIYQDNKRPSGLPARFSGSNSGNTATLTISGTQAMDEADYLCQVWDSGAVFGGGTKLTVLG
B3: S1-4-A09 Fab (Fab, V domains shown)
VH: B2 VH
VL: SYELTQPPSVSVSPGQTATITCSGDKLGDKYTSWFQQRPGQSPLLVIYQDNKRPSGLPARFSGSNSGNTATLTISGTQAMDEADYLCQVWDSGAVFGGGTKLTVL

What was measured:
[1] = target: T1, Zaire ebolavirus full-length GP (Zaire ebolavirus, UniProt Q05320 33-650); assay: ELISA on plates coated with purified full-length Zaire ebolavirus GP, A450
T1 sequence: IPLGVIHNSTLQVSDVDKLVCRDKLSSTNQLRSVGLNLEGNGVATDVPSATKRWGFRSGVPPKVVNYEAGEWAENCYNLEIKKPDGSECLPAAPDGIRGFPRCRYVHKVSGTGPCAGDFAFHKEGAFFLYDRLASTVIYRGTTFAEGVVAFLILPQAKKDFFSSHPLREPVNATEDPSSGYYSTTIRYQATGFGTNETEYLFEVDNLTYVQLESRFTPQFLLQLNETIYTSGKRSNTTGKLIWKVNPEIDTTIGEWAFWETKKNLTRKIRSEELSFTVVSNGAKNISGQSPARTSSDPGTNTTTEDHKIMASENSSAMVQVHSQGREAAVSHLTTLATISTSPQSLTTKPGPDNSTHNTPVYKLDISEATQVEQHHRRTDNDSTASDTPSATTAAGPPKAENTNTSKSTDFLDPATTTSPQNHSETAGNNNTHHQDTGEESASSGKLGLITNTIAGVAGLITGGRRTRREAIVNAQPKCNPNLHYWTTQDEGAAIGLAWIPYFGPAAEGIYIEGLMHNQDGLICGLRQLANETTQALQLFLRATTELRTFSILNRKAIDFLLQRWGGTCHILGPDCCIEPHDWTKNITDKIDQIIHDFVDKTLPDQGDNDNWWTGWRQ

[2] = target: T2, Zaire ebolavirus secreted GP (sGP) (Zaire ebolavirus, UniProt P60170 33-324); assay: ELISA on plates coated with purified Zaire ebolavirus sGP, A450
T2 sequence: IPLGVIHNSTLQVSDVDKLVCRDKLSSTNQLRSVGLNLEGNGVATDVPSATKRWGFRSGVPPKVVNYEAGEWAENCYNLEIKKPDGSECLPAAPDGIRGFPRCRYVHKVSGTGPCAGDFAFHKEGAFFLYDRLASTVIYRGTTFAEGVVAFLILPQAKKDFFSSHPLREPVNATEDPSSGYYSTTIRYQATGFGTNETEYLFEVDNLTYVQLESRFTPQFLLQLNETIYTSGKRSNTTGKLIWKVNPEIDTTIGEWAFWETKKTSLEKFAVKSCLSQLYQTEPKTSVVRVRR

[3] = target: T2, Zaire ebolavirus secreted GP (sGP); assay: biolayer interferometry, pH 7.4

Binder	EC50 (read off the curve) [1]	binding result [2]	binding result [3]
B1	~0.02 µg/mL		
B2	~0.03 µg/mL	no binding	
B3			no binding
